± gives the uncertainty stated by the source.
Assay: abundance fitness (aPCA) (normalised: wild type 0, dead -1); higher = more abundant; growth selection in yeast, the domain comes from the species named
Settings: Homo sapiens

Compared with “Lipoamide acyltransferase component of branched-chain alpha-keto acid dehydrogenase complex, mitochondrial V177F, P11182”, “Lipoamide acyltransferase component of branched-chain alpha-keto acid dehydrogenase complex, mitochondrial V177G, P11182” is higher in abundance fitness: -0.818 ± 0.076 for the first, -0.289 ± 0.038 for the second.

First: Lipoamide acyltransferase component of branched-chain alpha-keto acid dehydrogenase complex, mitochondrial V177H, P11182
Second: Lipoamide acyltransferase component of branched-chain alpha-keto acid dehydrogenase complex, mitochondrial V177I, P11182
The abundance fitness of the first is lower: -0.547 ± 0.15 for the first, -0.139 ± 0.058 for the second.

“Lipoamide acyltransferase component of branched-chain alpha-keto acid dehydrogenase complex, mitochondrial V177L, P11182” and “Lipoamide acyltransferase component of branched-chain alpha-keto acid dehydrogenase complex, mitochondrial V177M, P11182” are within error of each other in abundance fitness: -0.321 ± 0.04 for the first, -0.329 ± 0.078 for the second.

“Lipoamide acyltransferase component of branched-chain alpha-keto acid dehydrogenase complex, mitochondrial V177N, P11182” and “Lipoamide acyltransferase component of branched-chain alpha-keto acid dehydrogenase complex, mitochondrial V177P, P11182” are within error of each other in abundance fitness: -0.742 ± 0.26 for the first, -0.64 ± 0.08 for the second.

Compared with “Lipoamide acyltransferase component of branched-chain alpha-keto acid dehydrogenase complex, mitochondrial V177R, P11182”, “Lipoamide acyltransferase component of branched-chain alpha-keto acid dehydrogenase complex, mitochondrial V177S, P11182” is higher in abundance fitness: -0.802 ± 0.043 for the first, -0.255 ± 0.045 for the second.

Compared with “Lipoamide acyltransferase component of branched-chain alpha-keto acid dehydrogenase complex, mitochondrial V177T, P11182”, “Lipoamide acyltransferase component of branched-chain alpha-keto acid dehydrogenase complex, mitochondrial V177W, P11182” is lower in abundance fitness: -0.401 ± 0.06 for the first, -0.975 ± 0.14 for the second.

First: Lipoamide acyltransferase component of branched-chain alpha-keto acid dehydrogenase complex, mitochondrial V191A, P11182
Second: Lipoamide acyltransferase component of branched-chain alpha-keto acid dehydrogenase complex, mitochondrial V191C, P11182
The abundance fitness of the first is lower: -0.52 ± 0.058 for the first, -0.267 ± 0.053 for the second.

“Lipoamide acyltransferase component of branched-chain alpha-keto acid dehydrogenase complex, mitochondrial V191D, P11182” and “Lipoamide acyltransferase component of branched-chain alpha-keto acid dehydrogenase complex, mitochondrial V191E, P11182” are within error of each other in abundance fitness: -0.522 ± 0.092 for the first, -0.562 ± 0.043 for the second.

“Lipoamide acyltransferase component of branched-chain alpha-keto acid dehydrogenase complex, mitochondrial V191F, P11182” and “Lipoamide acyltransferase component of branched-chain alpha-keto acid dehydrogenase complex, mitochondrial V191H, P11182” are within error of each other in abundance fitness: -0.456 ± 0.054 for the first, -0.619 ± 0.12 for the second.

Work on “Lipoamide acyltransferase component of branched-chain alpha-keto acid dehydrogenase complex, mitochondrial V191K, P11182” yielded an abundance fitness of -0.653 ± 0.045.

Source: the Human Domainome abundance scans (Beltran et al. 2025)
